Measurements taken from article PMC3458824, “Direct Observation of the Uptake of Outer Membrane Proteins by the Periplasmic Chaperone Skp” (PLoS ONE, 2012).

B2: OmpC-D290C-Cy5 (natural protein, Escherichia coli, UniProt P06996 22-367, looked up)
chain: AEVYNKDGNKLDLYGKVDGLHYFSDNKDVDGDQTYMRLGFKGETQVTDQLTGYGQWEYQIQGNSAENENNSWTRVAFAGLKFQDVGSFDYGRNYGVVYDVTSWTDVLPEFGGDTYGSDNFMQQRGNGFATYRNTDFFGLVDGLNFAVQYQGKNGNPSGEGFTSGVTNNGRDALRQNGDGVGGSITYDYEGFGIGGAISSSKRTDAQNTAAYIGNGDRAETYTGGLKYDANNIYLAAQYTQTYNATRVGSLGWANKAQNFEAVAQYQFDFGLRPSLAYLQSKGKNLGRGYCDEDILKYVDVGATYYFNKNMSTYVDYKINLLDDNQFTRDAGINTDNIVALGLVYQF
modifications: Cy5 (Cy5-maleimide) on the introduced cysteine at 290
notes: Outer membrane protein OmpC of Escherichia coli; 346 residues as printed; Extent of labeling greater than 90%; also called Cy5 labeled OmpC mutant D290C; source: E. coli BL21 (DE3), purified (Ni-NTA) in 8 M urea, unfolded, labeled with Cy5-maleimide
B3: OmpC-L139C-Cy5 (natural protein, Escherichia coli, UniProt P06996 22-367, looked up)
chain: AEVYNKDGNKLDLYGKVDGLHYFSDNKDVDGDQTYMRLGFKGETQVTDQLTGYGQWEYQIQGNSAENENNSWTRVAFAGLKFQDVGSFDYGRNYGVVYDVTSWTDVLPEFGGDTYGSDNFMQQRGNGFATYRNTDFFGCVDGLNFAVQYQGKNGNPSGEGFTSGVTNNGRDALRQNGDGVGGSITYDYEGFGIGGAISSSKRTDAQNTAAYIGNGDRAETYTGGLKYDANNIYLAAQYTQTYNATRVGSLGWANKAQNFEAVAQYQFDFGLRPSLAYLQSKGKNLGRGYDDEDILKYVDVGATYYFNKNMSTYVDYKINLLDDNQFTRDAGINTDNIVALGLVYQF
modifications: Cy5 (Cy5-maleimide) on the introduced cysteine at 139
notes: Outer membrane protein OmpC of Escherichia coli; 346 residues as printed; Extent of labeling greater than 90%; also called Cy5 labeled OmpC mutant L139C; source: E. coli BL21 (DE3), purified (Ni-NTA) in 8 M urea, unfolded, labeled with Cy5-maleimide
B4: Skp-E82C-Cy3 (natural protein, Escherichia coli, UniProt P0AEU7 21-161, looked up)
chain: ADKIAIVNMGSLFQQVAQKTGVSNTLENEFKGRASELQRMETDLQAKMKKLQSMKAGSDRTKLEKDVMAQRQTFAQKAQAFCQDRARRSNEERGKLVTRIQTAVKSVANSQDIDLVVDANAVAYNSSDVKDITADVLKQVK
modifications: Cy3 (Cy3-maleimide) on the introduced cysteine at 82
notes: Skp of Escherichia coli, each monomer 141 residues as printed; Extent of labeling greater than 90%; one dye on each of the three chains of the trimer; also called Cy3 labeled Skp mutant E82C; Skp-Cy3; source: E. coli BL21 (DE3), purified (Ni-NTA), labeled with Cy3-maleimide
B5: Skp-K55C-Cy3 (natural protein, Escherichia coli, UniProt P0AEU7 21-161, looked up)
chain: ADKIAIVNMGSLFQQVAQKTGVSNTLENEFKGRASELQRMETDLQAKMKKLQSMCAGSDRTKLEKDVMAQRQTFAQKAQAFEQDRARRSNEERGKLVTRIQTAVKSVANSQDIDLVVDANAVAYNSSDVKDITADVLKQVK
modifications: Cy3 (Cy3-maleimide) on the introduced cysteine at 55
notes: Skp of Escherichia coli, each monomer 141 residues as printed; Extent of labeling greater than 90%; one dye on each of the three chains of the trimer; also called Cy3 labeled Skp mutant K55C; Skp-Cy3; source: E. coli BL21 (DE3), purified (Ni-NTA), labeled with Cy3-maleimide

What was measured:
[1] = target: Skp-D128C (Escherichia coli) (UniProt P0AEU7); test: fluorescence correlation spectroscopy (FCS); Cy3 labeled OmpC in 8 M urea diluted dropwise into 50 mM PBS pH 7.0, 100 mM NaCl, 0.01% Tween 20 with 0.2 µM reduced Skp; molecular weight of the complex from the diffusion time with free Cy3 as reference
[2] = target: Skp-K55C (Escherichia coli) (UniProt P0AEU7); test: as above
[3] = target: Skp-E82C (Escherichia coli) (UniProt P0AEU7); test: as above
Skp-D128C-Cy3 [4] = target: T1, Skp-D128C-Cy3 (Escherichia coli, UniProt P0AEU7 21-161, D128C, Cy3 (Cy3-maleimide) on the introduced cysteine at 128); test: stopped-flow fluorescence (Cy3 self-quenching); OMP in 8 M urea mixed 1:20 with Cy3 labeled Skp mutant; both 0.03 µM final; 50 mM PBS pH 7.0, 100 mM NaCl, 0.01% Tween 20, 25°C; traces fitted to two or three exponentials; details: both partners purified
T1 construct: Skp of Escherichia coli, each monomer 141 residues as printed; Extent of labeling greater than 90%; one dye on each of the three chains of the trimer; also called Cy3 labeled Skp mutant D128C; Skp-Cy3; source: E. coli BL21 (DE3), purified (Ni-NTA), labeled with Cy3-maleimide
T1 sequence (looked up): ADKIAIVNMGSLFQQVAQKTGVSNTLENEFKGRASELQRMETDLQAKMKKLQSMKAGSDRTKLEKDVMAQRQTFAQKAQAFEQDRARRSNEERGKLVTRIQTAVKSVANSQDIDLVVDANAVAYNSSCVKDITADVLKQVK

Skp-E82C-Cy3 = target: B4; test: as above; details: both partners purified
Skp-K55C-Cy3 = target: B5; test: as above; details: both partners purified
wild-type Skp = target: T2, wild-type Skp (Escherichia coli, UniProt P0AEU7 21-161); test: cell-based or functional assay
T2 sequence (looked up): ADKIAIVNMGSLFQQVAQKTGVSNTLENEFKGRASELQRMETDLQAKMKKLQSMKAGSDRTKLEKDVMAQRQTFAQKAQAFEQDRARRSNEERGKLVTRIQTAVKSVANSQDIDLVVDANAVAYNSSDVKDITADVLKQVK

Skp-D128C-Cy3 [5] = target: T1, Skp-D128C-Cy3; test: FRET or BRET; stopped-flow FRET; Cy5 labeled OmpC mutant in 8 M urea mixed 1:20 with Cy3 labeled Skp mutant; both 0.03 µM final; 50 mM PBS pH 7.0, 100 mM NaCl, 0.01% Tween 20, 25°C; Cy5 emission, fitted to three exponentials; details: both partners purified
OmpC-D290C-Cy5 = target: B2; test: as above; details: both partners purified
OmpC-L139C-Cy5 = target: B3; test: as above; details: both partners purified

Cy3 labeled OmpC (from UniProt P06996 22-367) (natural protein)
stoichiometry N [1]: 1 OmpC:Skp | stoichiometry N [2]: 1 OmpC:Skp | stoichiometry N [3]: 1 OmpC:Skp

B1: OmpC (natural protein, Escherichia coli, UniProt P06996 22-367, looked up)
chain: AEVYNKDGNKLDLYGKVDGLHYFSDNKDVDGDQTYMRLGFKGETQVTDQLTGYGQWEYQIQGNSAENENNSWTRVAFAGLKFQDVGSFDYGRNYGVVYDVTSWTDVLPEFGGDTYGSDNFMQQRGNGFATYRNTDFFGLVDGLNFAVQYQGKNGNPSGEGFTSGVTNNGRDALRQNGDGVGGSITYDYEGFGIGGAISSSKRTDAQNTAAYIGNGDRAETYTGGLKYDANNIYLAAQYTQTYNATRVGSLGWANKAQNFEAVAQYQFDFGLRPSLAYLQSKGKNLGRGYDDEDILKYVDVGATYYFNKNMSTYVDYKINLLDDNQFTRDAGINTDNIVALGLVYQF
notes: Outer membrane protein OmpC of Escherichia coli; 346 residues as printed; Kept unfolded in 8 M urea and diluted into the Skp solution (final urea 0.38 M in stopped-flow); the printed 346 residues fit the mature protein; also called wild-type OmpC; urea-denatured OmpC; source: E. coli BL21 (DE3), purified (Ni-NTA) in 8 M urea, unfolded
time constant τ1 of the first phase (Skp-D128C-Cy3 [4]): 188 ± 12 ms | time constant τ1 of the first phase (Skp-E82C-Cy3): 125 ± 7.8 ms | time constant τ1 of the first phase (Skp-K55C-Cy3): 82.6 ± 5.5 ms | aggregation of urea-denatured OmpC (1.5 µM) by light scatter at 380 nm, 25°C, with 0, 1.5, 4.5 and 7.5 µM wild-type Skp (wild-type Skp): 5 fold molar excess

B2
time constant τ1 of the fast phase (Skp-D128C-Cy3 [5]): 285 ± 19 ms

B3
time constant τ1 of the fast phase (Skp-D128C-Cy3 [5]): 208 ± 14 ms

B4
binding result (OmpC-D290C-Cy5): binds | binding result (OmpC-L139C-Cy5): binds

B5
binding result (OmpC-D290C-Cy5): binds | binding result (OmpC-L139C-Cy5): binds

B6: OmpF (natural protein, Escherichia coli)
chain: AEIYNKDGNKVDLYGKAVGLHYFSKGNGENSYGGNGDMTYARLGFKGETQINSDLTGYGQWEYNFQGNNSEGADAQTGNKTRLAFAGLKYADVGSFDYGRNYGVVYDALGYTDMLPEFGGDTAYSDDFFVGRVGGVATYRNSNFFGLVDGLNFAVQYLGKNERDTARRSNGDGVGGSISYEYEGFGIVGAYGAADRTNLQEAQPLGNGKKAEQWATGLKYDANNIYLAANYGETRNATPITNKFTNTSGFANKTQDVLLVAQYQFDFGLRPSIAYTKSKAKDVEGIGDVDLVNYFEVGATYYFNKNMSTYVDYIINQIDSDNKLGVGSDDTVAVGIVYQF
notes: Outer membrane protein OmpF of Escherichia coli; probably the mature protein as for OmpC (surmise); also called wild-type OmpF; source: E. coli BL21 (DE3), purified (Ni-NTA) in 8 M urea, unfolded
time constant τ1 of the first phase (Skp-D128C-Cy3 [4]): 270 ± 16 ms | time constant τ1 of the first phase (Skp-E82C-Cy3): 182 ± 11 ms | time constant τ1 of the first phase (Skp-K55C-Cy3): 61.3 ± 4.9 ms

B7: transmembrane domain of OmpA (domain or fragment, Escherichia coli)
chain: APKDNTWYTGAKLGWSQYHDTGFINNNGPTHENQLGAGAFGGYQVNPYVGFEMGYDWLGRMPYKGSVENGAYKAQGVQLTAKLGYPITDDLDIYTRLGGMVWRADTKSNVYGKNHDTGVSPVFAGGVEYAITPEIATRLEYQWTNNIGDAHTIGTRPDNGMLSLGVSYRFGQGEAA
notes: Transmembrane beta-barrel domain of outer membrane protein OmpA of Escherichia coli; PDB 2GE4 is named as the structure of this domain; also called OmpA-TMD; source: E. coli BL21 (DE3), purified (Ni-NTA) in 8 M urea, unfolded
time constant τ1 of the first phase (Skp-D128C-Cy3 [4]): 105 ± 7.3 ms | time constant τ1 of the first phase (Skp-E82C-Cy3): 61.7 ± 4.2 ms | time constant τ1 of the first phase (Skp-K55C-Cy3): 38.6 ± 2.7 ms
